# Measurements reported in patent US20190218277A1 (Chugai, published 2019).
# T1: human FcγRIIIb (NA2) (human, UniProt O75015 17-200)
# T1 construct: also called human FcγR3b allelic variant NA2
# T1 chain: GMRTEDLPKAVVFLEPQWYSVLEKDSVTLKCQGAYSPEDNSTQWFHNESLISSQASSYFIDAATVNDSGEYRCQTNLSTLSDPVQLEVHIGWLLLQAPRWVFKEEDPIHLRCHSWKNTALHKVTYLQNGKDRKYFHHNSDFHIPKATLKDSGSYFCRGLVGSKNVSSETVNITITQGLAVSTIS
# T2: human FcγRIIb (human, UniProt P31994 43-217)
# T2 construct: also called human FcγR2b
# T2 sequence: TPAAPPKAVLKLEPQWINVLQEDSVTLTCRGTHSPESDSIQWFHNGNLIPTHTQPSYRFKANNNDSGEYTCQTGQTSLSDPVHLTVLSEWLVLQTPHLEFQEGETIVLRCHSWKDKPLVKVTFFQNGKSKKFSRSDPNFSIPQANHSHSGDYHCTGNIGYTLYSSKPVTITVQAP
# T3: human FcγRIIIb (NA1) (human, UniProt O75015 17-200)
# T3 construct: also called human FcγR3b allelic variant NA1
# T3 chain: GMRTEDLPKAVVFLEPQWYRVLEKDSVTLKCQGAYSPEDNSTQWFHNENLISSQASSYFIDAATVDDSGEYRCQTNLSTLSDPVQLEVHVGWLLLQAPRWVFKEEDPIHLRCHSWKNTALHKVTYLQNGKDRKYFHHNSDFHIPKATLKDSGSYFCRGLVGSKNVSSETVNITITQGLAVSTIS
# T4: human FcγRIIa (167R) (human, UniProt P12318 36-217)
# T4 construct: also called human FcγR2a allelic variant 167R
# T4 chain: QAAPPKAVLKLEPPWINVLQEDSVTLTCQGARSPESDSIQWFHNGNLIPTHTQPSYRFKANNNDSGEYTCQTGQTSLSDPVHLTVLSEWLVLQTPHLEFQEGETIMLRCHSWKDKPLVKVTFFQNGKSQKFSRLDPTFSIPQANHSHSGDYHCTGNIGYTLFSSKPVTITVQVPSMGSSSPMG
# T5: human FcγRIIa (167H) (human, UniProt P12318 36-217)
# T5 construct: also called human FcγR2a allelic variant 167H
# T5 sequence: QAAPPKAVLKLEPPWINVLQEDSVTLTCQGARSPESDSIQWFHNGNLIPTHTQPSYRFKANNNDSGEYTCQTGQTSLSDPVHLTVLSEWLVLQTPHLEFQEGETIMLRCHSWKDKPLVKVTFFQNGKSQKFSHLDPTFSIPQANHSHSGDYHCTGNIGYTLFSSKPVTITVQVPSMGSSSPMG
# T6: mouse FcγRIV (mouse, UniProt A0A0B4J1G0 21-203)
# T6 construct: also called mFcγRIV; mouse FcγR4
# T6 sequence: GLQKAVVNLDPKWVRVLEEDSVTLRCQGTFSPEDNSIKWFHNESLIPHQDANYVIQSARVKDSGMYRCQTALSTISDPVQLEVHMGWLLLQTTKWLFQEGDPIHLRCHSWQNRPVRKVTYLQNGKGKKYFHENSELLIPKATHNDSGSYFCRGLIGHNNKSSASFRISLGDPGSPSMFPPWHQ
# What was measured:
# human FcγRIIIb (NA2) = target: T1, human FcγRIIIb (NA2); test: SPR (Biacore T200, pH 7.4, 25 °C): His-tagged FcγR captured by anti-His antibody; antibody injected at 100 nM alone (Ab alone) or as 1:1 complex with trimeric CD154 (CD154 IC); binding level / capture level [H]
# [1] = target: mouse C1q (from 10% mouse plasma) (mouse, UniProt P98086 23-245; P14106 26-253; Q02105 30-246); test: ELISA: antibody coated on the plate at the concentration shown, 10% mouse plasma added, detected with biotinylated anti-mouse C1q and streptavidin-HRP, OD 405 nm
# Chain of mouse C1q (from 10% mouse plasma) (P98086 23-245 limits assumed, chain 1 of 3): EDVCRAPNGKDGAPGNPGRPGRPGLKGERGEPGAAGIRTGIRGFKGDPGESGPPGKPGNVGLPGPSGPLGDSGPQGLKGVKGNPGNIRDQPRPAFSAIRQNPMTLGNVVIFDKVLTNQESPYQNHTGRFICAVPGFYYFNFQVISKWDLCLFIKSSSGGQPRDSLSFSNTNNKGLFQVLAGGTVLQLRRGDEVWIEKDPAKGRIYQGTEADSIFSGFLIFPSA
# Chain of mouse C1q (from 10% mouse plasma) (P14106 26-253 limits assumed, chain 2 of 3): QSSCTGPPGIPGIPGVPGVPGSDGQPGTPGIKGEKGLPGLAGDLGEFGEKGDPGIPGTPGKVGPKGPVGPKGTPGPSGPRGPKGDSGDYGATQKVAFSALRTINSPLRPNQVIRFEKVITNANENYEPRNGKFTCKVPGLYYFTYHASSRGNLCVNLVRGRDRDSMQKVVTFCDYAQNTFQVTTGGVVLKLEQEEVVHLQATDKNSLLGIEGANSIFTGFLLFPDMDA
# Chain of mouse C1q (from 10% mouse plasma) (Q02105 30-246 limits assumed, chain 3 of 3): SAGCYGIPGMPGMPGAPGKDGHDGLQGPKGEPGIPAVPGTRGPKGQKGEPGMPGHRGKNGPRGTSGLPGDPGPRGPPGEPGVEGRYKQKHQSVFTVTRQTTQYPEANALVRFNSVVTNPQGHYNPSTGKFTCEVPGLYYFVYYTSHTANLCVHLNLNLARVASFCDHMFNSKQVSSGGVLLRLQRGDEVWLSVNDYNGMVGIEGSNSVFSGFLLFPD
# human FcγRIIb = target: T2, human FcγRIIb; test: SPR (Biacore T200, pH 7.4, 25 °C): His-tagged FcγR captured by anti-His antibody; antibody injected at 100 nM alone (Ab alone) or as 1:1 complex with trimeric CD154 (CD154 IC); binding level / capture level [D]
# human FcγRIIIb (NA1) = target: T3, human FcγRIIIb (NA1); test: SPR (Biacore T200, pH 7.4, 25 °C): His-tagged FcγR captured by anti-His antibody; antibody injected at 100 nM alone (Ab alone) or as 1:1 complex with trimeric CD154 (CD154 IC); binding level / capture level [G]
# human FcγRIIa (167R) = target: T4, human FcγRIIa (167R); test: SPR (Biacore T200, pH 7.4, 25 °C): His-tagged FcγR captured by anti-His antibody; antibody injected at 100 nM alone (Ab alone) or as 1:1 complex with trimeric CD154 (CD154 IC); binding level / capture level [C]
# human FcγRIIa (167H) = target: T5, human FcγRIIa (167H); test: SPR (Biacore T200, pH 7.4, 25 °C): His-tagged FcγR captured by anti-His antibody; antibody injected at 100 nM alone (Ab alone) or as 1:1 complex with trimeric CD154 (CD154 IC); binding level / capture level [B]
# human FcγRIa = target: T7, human FcγRIa (human, UniProt P12314 16-292); test: SPR (Biacore T200, pH 7.4, 25 °C): His-tagged FcγR captured by anti-His antibody; antibody injected at 100 nM alone (Ab alone) or as 1:1 complex with trimeric CD154 (CD154 IC); binding level / capture level [A]
# T7 construct: also called human FcγR1a
# T7 sequence (P12314 16-292 limits assumed): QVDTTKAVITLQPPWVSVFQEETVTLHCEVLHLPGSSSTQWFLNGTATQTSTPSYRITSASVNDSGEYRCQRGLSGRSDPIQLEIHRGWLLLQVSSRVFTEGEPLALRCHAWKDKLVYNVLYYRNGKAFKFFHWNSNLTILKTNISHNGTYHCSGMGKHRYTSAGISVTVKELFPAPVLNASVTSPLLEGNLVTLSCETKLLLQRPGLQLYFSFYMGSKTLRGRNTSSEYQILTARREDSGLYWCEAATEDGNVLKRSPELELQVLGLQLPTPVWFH
# mouse FcγRIV = target: T6, mouse FcγRIV; test: SPR (Biacore T200, pH 7.4, 25 °C): His-tagged FcγR captured by anti-His antibody; antibody injected at 100 nM alone (Ab alone) or as 1:1 complex with trimeric CD154 (CD154 IC); binding level / capture level [D]
# human FcγRIIIa (158V) = target: T8, human FcγRIIIa (158V) (human, UniProt P08637 17-208); test: SPR (Biacore T200, pH 7.4, 25 °C): His-tagged FcγR captured by anti-His antibody; antibody injected at 100 nM alone (Ab alone) or as 1:1 complex with trimeric CD154 (CD154 IC); binding level / capture level [F]
# T8 construct: also called human FcγR3a allelic variant 158V
# T8 sequence (P08637 other isoform, or with tags, fused parts or gaps limits assumed): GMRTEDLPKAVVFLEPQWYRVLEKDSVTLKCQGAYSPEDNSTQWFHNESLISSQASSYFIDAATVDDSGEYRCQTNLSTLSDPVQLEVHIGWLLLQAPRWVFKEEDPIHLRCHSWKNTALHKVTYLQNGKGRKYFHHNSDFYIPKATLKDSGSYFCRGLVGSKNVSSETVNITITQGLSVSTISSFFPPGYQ
Binder,binding result (human FcγRIIIb (NA2)),binding result [1],binding result (human FcγRIIb),binding result (human FcγRIIIb (NA1)),binding result (human FcγRIIa (167R)),binding result (human FcγRIIa (167H)),binding result (human FcγRIa),binding result (mouse FcγRIV),binding result (human FcγRIIIa (158V))
Anti-CD154 antibody (SLAPH0336a/SLAPL0336a) with Fc variant LALA+ACT3 (SG1044) (antibody) heavy: EVQLVESGGGSVKPGGSLKLSCAASGFTFSDHYMYWVRQTPEKRLEWVAIISGGGSYTSYPDSMKGRFTISRDNAKNILHLQMSSLKSEDTAMYYCTRESNGKPGFAYWGQGTLVTVSAASTKGPSVFPLAPSSKSTSGGTAALGCLVKDYFPEPVTVSWNSGALTSGVHTFPAVLQSSGLYSLSSVVTVPSSSLGTQTYICNVNHKPSNTKVDKRVEPKSCDKTHTCPPCPAPEAAGGPSVFLFPPKPKDTLMISRTPEVTCVVVDVSHEDPEVKFNWYVDGVEVHNAKTKPREEQYNSTYRVVSVLTVLHQDWLNGKEYKCKVSNKALPAPIEKTISKAKGQPREPQVYTLPPSREEMTKNQVSLTCLVKGFYPSDIAVEWESNGQPENNYKTTPPVLDSDGSFFLYSKLTVDKSRWQQGNVFSCSVLHEALHAHTTRKELSLSP light: not shown,no binding (tested: 100 nM),binds,no binding (tested: 100 nM),no binding (tested: 100 nM),no binding (tested: 100 nM),no binding (tested: 100 nM),binds,no binding (tested: 100 nM),–
"Anti-CD154 antibody (SLAPH0336a/SLAPL0336a) with Fc variant LALA+ACT5+KAES (SG1106) (antibody, also called LALA+KAES+ACT5) heavy: EVQLVESGGGSVKPGGSLKLSCAASGFTFSDHYMYWVRQTPEKRLEWVAIISGGGSYTSYPDSMKGRFTISRDNAKNILHLQMSSLKSEDTAMYYCTRESNGKPGFAYWGQGTLVTVSAASTKGPSVFPLAPSSKSTSGGTAALGCLVKDYFPEPVTVSWNSGALTSGVHTFPAVLQSSGLYSLSSVVTVPSSSLGTQTYICNVNHKPSNTKVDKRVEPKSCDKTHTCPPCPAPEAAGGPSVFLFPPKPKDTLMISRTPEVTCVVVDVSHEDPEVKFNWYVDGVEVHNAKTKPREEQYNSTYRVVSVLTVLHQDWLNGKEYKCKVSNAALPAPISKTISKAKGQPREPQVYTLPPSREEMTKNQVSLTCLVKGFYPSDIAVEWESNGQPENNYKTTPPVLDSDGSFFLYSKLTVDKSRWQQGNVFSCSVLHEALHAHYTRKELSLSP light: not shown",no binding (tested: 100 nM),binds,no binding (tested: 100 nM),no binding (tested: 100 nM),no binding (tested: 100 nM),no binding (tested: 100 nM),binds,no binding (tested: 100 nM),binds
Anti-CD154 antibody (SLAPH0336a/SLAPL0336a) with Fc variant LALA+ACT5 (SG1045) (antibody) heavy: EVQLVESGGGSVKPGGSLKLSCAASGFTFSDHYMYWVRQTPEKRLEWVAIISGGGSYTSYPDSMKGRFTISRDNAKNILHLQMSSLKSEDTAMYYCTRESNGKPGFAYWGQGTLVTVSAASTKGPSVFPLAPSSKSTSGGTAALGCLVKDYFPEPVTVSWNSGALTSGVHTFPAVLQSSGLYSLSSVVTVPSSSLGTQTYICNVNHKPSNTKVDKRVEPKSCDKTHTCPPCPAPEAAGGPSVFLFPPKPKDTLMISRTPEVTCVVVDVSHEDPEVKFNWYVDGVEVHNAKTKPREEQYNSTYRVVSVLTVLHQDWLNGKEYKCKVSNKALPAPIEKTISKAKGQPREPQVYTLPPSREEMTKNQVSLTCLVKGFYPSDIAVEWESNGQPENNYKTTPPVLDSDGSFFLYSKLTVDKSRWQQGNVFSCSVLHEALHAHYTRKELSLSP light: not shown,no binding (tested: 100 nM),binds,no binding (tested: 100 nM),no binding (tested: 100 nM),no binding (tested: 100 nM),no binding (tested: 100 nM),binds,no binding (tested: 100 nM),binds
"Anti-CD154 antibody (SLAPH0336a/SLAPL0336a) with Fc variant LALA+ACT3+KAES (SG1105) (antibody, also called LALA+KAES+ACT3) heavy: EVQLVESGGGSVKPGGSLKLSCAASGFTFSDHYMYWVRQTPEKRLEWVAIISGGGSYTSYPDSMKGRFTISRDNAKNILHLQMSSLKSEDTAMYYCTRESNGKPGFAYWGQGTLVTVSAASTKGPSVFPLAPSSKSTSGGTAALGCLVKDYFPEPVTVSWNSGALTSGVHTFPAVLQSSGLYSLSSVVTVPSSSLGTQTYICNVNHKPSNTKVDKRVEPKSCDKTHTCPPCPAPEAAGGPSVFLFPPKPKDTLMISRTPEVTCVVVDVSHEDPEVKFNWYVDGVEVHNAKTKPREEQYNSTYRVVSVLTVLHQDWLNGKEYKCKVSNAALPAPISKTISKAKGQPREPQVYTLPPSREEMTKNQVSLTCLVKGFYPSDIAVEWESNGQPENNYKTTPPVLDSDGSFFLYSKLTVDKSRWQQGNVFSCSVLHEALHAHTTRKELSLSP light: not shown",no binding (tested: 100 nM),binds,no binding (tested: 100 nM),no binding (tested: 100 nM),no binding (tested: 100 nM),no binding (tested: 100 nM),binds,no binding (tested: 100 nM),binds
